Source: publication PMC2602803
Read-outs that look alike come from different tables or passages of the source.

T1: UHRF1 SRA domain (NP95) (mouse, UniProt Q8VDF2 419-628)
T1 sequence: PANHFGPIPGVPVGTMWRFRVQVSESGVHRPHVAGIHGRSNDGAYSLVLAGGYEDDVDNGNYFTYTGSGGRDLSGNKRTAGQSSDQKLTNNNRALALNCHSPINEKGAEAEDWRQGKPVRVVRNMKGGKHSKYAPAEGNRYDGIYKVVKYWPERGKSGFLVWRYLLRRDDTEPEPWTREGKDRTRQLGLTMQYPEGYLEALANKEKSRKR


What was measured:
UHRF1 SRA domain (NP95) [1] = target: T1, UHRF1 SRA domain (NP95); test: X-ray crystallography
UHRF1 SRA domain (NP95) [2] = target: T1, UHRF1 SRA domain (NP95); test: X-ray crystallography; remark: listed apart in the source

| Binder | binding result (UHRF1 SRA domain (NP95) [1]) | binding result (UHRF1 SRA domain (NP95) [2]) |
| --- | --- | --- |
| unmethylated CpG 12-bp duplex (dsDNA) DNA 1: AACTGCGCAGTT DNA 2: AACTGCGCAGTT | binds |  |
| hemimethylated CpG 12-bp duplex (dsDNA, 5-methylcytosine at position 6 of strand 2 (…); strand 1 unmethylated) DNA 1: TCCATGCGCTGAC DNA 2: GTCAGCGCATGG |  | binds |
